# Measured values taken from patent publication US20210147812A1, “Method of Preparing Cancer Spheroid and Method of Selecting Colorectal Cancer Patient” (Kyo Diagnostics K.K., priority 2017, published 2021).
# B1: EGF: epidermal growth factor, recombinant human protein (protein, UniProt P01133 23-1207, looked up)
# Pro-epidermal growth factor: PQHWSCPEGTLAGNGNSTCVGPAPFLIFSHGNSIFRIDTEGTNYEQLVVDAGVSVIMDFHYNEKRIYWVDLERQLLQRVFLNGSRQERVCNIEKNVSGMAINWINEEVIWSNQQEGIITVTDMKGNNSHILLSALKYPANVAVDPVERFIFWSSEVAGSLYRADLDGVGVKALLETSEKITAVSLDVLDKRLFWIQYNREGSNSLICSCDYDGGSVHISKHPTQHNLFAMSLFGDRIFYSTWKMKTIWIANKHTGKDMVRINLHSSFVPLGELKVVHPLAQPKAEDDTWEPEQKLCKLRKGNCSSTVCGQDLQSHLCMCAEGYALSRDRKYCEDVNECAFWNHGCTLGCKNTPGSYYCTCPVGFVLLPDGKRCHQLVSCPRNVSECSHDCVLTSEGPLCFCPEGSVLERDGKTCSGCSSPDNGGCSQLCVPLSPVSWECDCFPGYDLQLDEKSCAASGPQPFLLFANSQDIRHMHFDGTDYGTLLSQQMGMVYALDHDPVENKIYFAHTALKWIERANMDGSQRERLIEEGVDVPEGLAVDWIGRRFYWTDRGKSLIGRSDLNGKRSKIITKENISQPRGIAVHPMAKRLFWTDTGINPRIESSSLQGLGRLVIASSDLIWPSGITIDFLTDKLYWCDAKQSVIEMANLDGSKRRRLTQNDVGHPFAVAVFEDYVWFSDWAMPSVMRVNKRTGKDRVRLQGSMLKPSSLVVVHPLAKPGADPCLYQNGGCEHICKKRLGTAWCSCREGFMKASDGKTCLALDGHQLLAGGEVDLKNQVTPLDILSKTRVSEDNITESQHMLVAEIMVSDQDDCAPVGCSMYARCISEGEDATCQCLKGFAGDGKLCSDIDECEMGVPVCPPASSKCINTEGGYVCRCSEGYQGDGIHCLDIDECQLGEHSCGENASCTNTEGGYTCMCAGRLSEPGLICPDSTPPPHLREDDHHYSVRNSDSECPLSHDGYCLHDGVCMYIEALDKYACNCVVGYIGERCQYRDLKWWELRHAGHGQQQKVIVVAVCVVVLVMLLLLSLWGAHYYRTQKLLSKNPKNPYEESSRDVRSRRPADTEDGMSSCPQPWFVVIKEHQDLKNGGQPVAGEDGQAADGSMQPTSWRQEPQLCGMGTEQGCWIPVSSDKGSCPQVMERSFHMPSYGTQTLEGGVEKPHSLLSANPLWQQRALDPPHQMELTQ
# modifications: Pro-epidermal growth factor
# notes: epidermal growth factor, recombinant human protein
# Tested on: CRC-TIC spheroid lines that carried wild-type RAS/RAF genes (HC6T, HC9T, HC11T, HC21T)
# Experiment: Stimulation of spheroid growth with EGF and/or bFGF, luminescence-based growth monitoring (GEI)
# Assay type: cell-based, human
# Conditions: HC11T
# Protocol: Luminescence was determined daily or 3 days later. The cell growth rate for each well was estimated as the proportion of photon counts to those on day 1. Four or six replicates (with similar statistical power) were analyzed for each data point in all experiments except for the chemical compound screening assays.
# To investigate whether EGF and bFGF helped spheroid proliferation in the cancer medium as described above, we cultured with EGF and/or bFGF four slow-growing CRC-TIC spheroid lines that carried wild-type RAS/RAF genes (HC6T, HC9T, HC11T, HC21T). Because EGF/bFGF facilitated the growths of these spheroid lines substantially (FIG. 3A), we then quantified their effects by the luminescence-based growth monitoring. To calibrate the effects, we introduced the growth effect index (GEI) defined as the relative growth rate of a treated group to that of its solvent-only control in each paired assay. […] The extents of growth promotion by EGF and bFGF were different depending on the spheroid line. […] In another spheroid line (HC21T), the effects were similar between the two growth factors (FIG. 3B).
molecule,measurement,value
B1,"extent of growth promotion, bFGF versus EGF",vice versa
